Key:
purified protein [1] = substrate: CCN(CC)c1ccc(C(=C2C=CC(=[N+](CC)CC)C=C2)c2ccccc2)cc1; experiment: purified protein; format: biochemical, Saccharomonospora viridis; details: H2O2 co-substrate (0.1 mM in all tests), 50 mM phosphate pH 7.0, standard assay 60°C, temperature of kinetics not stated
purified protein [2] = substrate: Nc1c(S(=O)(=O)O)cc(Nc2cccc(S(=O)(=O)CCOS(=O)(=O)O)c2)c2c1C(=O)c1ccccc1C2=O; experiment: purified protein; format: biochemical, Saccharomonospora viridis; details: H2O2 co-substrate (0.1 mM in all tests), 50 mM phosphate pH 7.0, standard assay 60°C, temperature of kinetics not stated

B1: SviDyP (Saccharomonospora viridis) (protein)
chain: MKGRRFGRRAFLATGAAALGGAAALGGRELFTGDGGADGRDRPDRGDIGRATVDFHGERQAGVATPAQAFATFVAFDLLDGVDREALIRWMRVWTDDIERLTRGAPALTDTEPELALLPARLTVTVGFGPGFLAAAGREELRPSWLAPLPEFPIDRLREEFSGGDLVAQVCADDEVTVAHAVRVLTKQARSFARPRWVQRGFRNTPGAVPEGATMRNLMGQLDGTRNLRPGPDDRLIWISDGPEWLRGGTGMVVRRIAMNLDTWDELDRPARELVIGRRLDNGAPLTGRHEHDEPDLEAVDERGLSVIPMFAHIRRARSDNPDERFLRRSYNYDDPPEPGELSNSGLVFVTFQADIEAQFTPIQRRLAELDSLNDWTTPIGSAVFAVPRGCRPGEYLGQPLLEA
notes: Ni-NTA and Sephadex G-75; tag removal not mentioned; ~45 kDa on SDS-PAGE
Purified protein [1]
  Km: 58.87 ± 4.7 µM
Purified protein [2]
  Km: 210.2 ± 16.5 µM
